Measured values as given in US20250250357A1 (NANJING ZAIMING PHARMACEUTICAL, published 2025).

B1: S009-F1.2.12 human-murine chimeric antibody (antibody, human IgG1, kappa, V domains shown)
VH: QVQLKQTGPGLVQPSQSLSITCTVSGFSLTNYAVHWVRQSPGKGLEWLGVIWSGGATDYNTVFISRLSISKDNSKSQVFFKVNSLQVDDTAIYYCARTGSGYAMDYWGQGTSVTVSS
VL: DIVLTQSPATLSVTPGDRVSLSCRTSHNVNTYLHWYQQKSHESPRLLIKYASQSISEIPSRFSGSGSGTNFTLSINSVETEDFGMYFCHQTNRWPLTFGAGTKLELKR
notes: Chimeric IgG1/kappa
B2: S009-F1.7.14 human-murine chimeric antibody (antibody, human IgG1, kappa)
heavy: not shown
light: QIVLTQSPAIMSASPGEKVTISCSASSSVSYMYWYQQKPGSSPKPWISRTSNLASGVPARFSGSGSGTSYSLTISSMEAEDAATYYCQQYHSYPPTLGAGTKLELKRTVAAPSVFIFPPSDEQLKSGTASVVCLLNNFYPREAKVQWKVDNALQSGNSQESVTEQDSKDSTYSLSSTLTLSKADYEKHKVYACEVTHQGLSSPVTKSFNRGEC
notes: Chimeric IgG1/kappa
B3: S009-F1.25.10 human-murine chimeric antibody (antibody, human IgG1, kappa, V domains shown)
VH: EVQLQQSGPELVKPGASLKISCKASGYSFTDYTMNWVKQSHGKNLEWIGLFNPYNGGISYNQKFKGKATLTVDKSSNTAYMELLSLTSDDSAVYFCARDGRGGFYAMDYWGQGTSVTVSS
VL: DIQMTQTTSSLSASLGDRVTISCRASQDISIYLNWYQQKPDGPVKLLIYYTSRLHSGVPSRFSGSGSGTDFSLTISNLEQEDIATYFCQQGYTLPPWTFGGGTKLEIKR
notes: Chimeric IgG1/kappa
B4: S009-F1.35.24 human-murine chimeric antibody (antibody, human IgG1, kappa, V domains shown)
VH: EVQLQQSEPELVKPGASVRISCKASGYSFTDYYMHWVKQSPENRLEWIGEINPSTGGTSYNPKFKDKATLTVDKSSSTAYMQLKSLTSEESAVYYCTRYHYYGSSSYVMDYWGQGTSVTVSS
VL: QIVLTQSPAILSASPGERVTMTCSASSSVYHMHWFQQKSGTSPKRWVYDTSKLASGVPARFSGSGSGTSYSLTISSMEAEDAATYYCQHWRTNPLTFGAGTKLELKR
notes: Chimeric IgG1/kappa
B5: S009-F1.56.1 human-murine chimeric antibody (antibody, human IgG1, kappa, V domains shown)
VH: EVQLQQSGAEVVKPGASVKLSCTASGFNIRHTYMHWVKQRPEQGLEWIGRIDPANGNTEYDPKFQGKATITADTSSNTAYLQLSSLTSEDTAVYYCARDGWYIDVWGAGTTVTVSS
VL: DIVMSQSPSSLAVSVGEKVTMSCKSSQSLLYSNNQKNYLAWYQQKPGQSPKLLIYWASTRESGVPDRFTGSGSGTDFTLTISSVKAEDLAVYYCQRYYSYPWTFGGGTKLEIKR
notes: Chimeric IgG1/kappa
B6: S009-F1.57.1 human-murine chimeric antibody (antibody, human IgG1, kappa, V domains shown)
VH: EAQLQQSGAVFVKPGASVKLSCTASGFSSKDIFLHWVKQRPEQGLEWIGRIDPASDNTIYDPKFQDRATITSDRSSNTAYLQFSSLTSEDTAVYFCLYFDFWGQGTTLTVSS
VL: DIVMTQATPSISVTPGESVSISCRSSESLLHSNGNTYLYWFLQRPGQSPQLLIYRMSNLASGVPDRFSVSGSGTAFTLRISRVEAEDVGVYYCMQHLEYPLTFGAGTKLELKR
notes: Chimeric IgG1/kappa
B7: S009-F1.59.1 human-murine chimeric antibody (antibody, human IgG1, kappa, V domains shown)
VH: EVKLEGSGGGLVQPGGSMMLSCVATGFTFSSYWMNWVRQSPDRGLEWVAEIRLKSNGFAAFYAESVKGRFTISRDDSKSSVYLQMNNLRTEDTGIYYCTYFVHWGQGILVTVSE
VL: DIVLTQSPTSLAVSLGQRATISCRTSESVEYFGTILIQWYQQKPGQPPKLLIFGASNVESGVPARFSGSGSGTDFSLNIHPVEEEDIAMYFCQQNRKVPYTFGGGTTLELKR
notes: Chimeric IgG1/kappa
B8: S009-F1.62.9 human-murine chimeric antibody (antibody, human IgG1, kappa, V domains shown)
VH: EVQLQQSGADLVKPGASVKLSCTVFGLNFKDTFMHWVRQRPEQGLEWIGRIDPANDNSIYGPKFQDKATITADTSSNTAYLHLSSLTSEDTAVYYCLYFDNWGHGTTLTVSS
VL: DIVMTQAASSEPVTPGESVSISCRSDKSLLHSNGHNYLYWFLQRPGQSPHLLIYRMSNLASGVPDRFSGSGSGTAFTLRISRVEAEDVGVYYCMQHLEYPLTFGAGTKLELKR
notes: Chimeric IgG1/kappa

What was measured:
[1] = biological target: T1, human MSLN-FL-his protein (human, UniProt Q13421 296-580); test: ELISA, coated antigen; antibody 0.1 nM
T1 construct: also called hMSLN-FL-his; human MSLN full-length protein; not shown: His tag

[2] = biological target: T2, human MSLN-R1-his protein (human, UniProt Q13421 296-390); test: ELISA, coated antigen; antibody 0.0001 nM
T2 construct: also called hMSLN-R1-his; human MSLN-R1 protein; not shown: His tag
T2 chain: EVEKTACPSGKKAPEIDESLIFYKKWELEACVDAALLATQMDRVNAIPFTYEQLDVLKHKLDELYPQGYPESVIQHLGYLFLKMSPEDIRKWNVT

[3] = biological target: T2, human MSLN-R1-his protein; test: ELISA, coated antigen; antibody 0.01 nM
Method: (§1) The plate was sealed with a plastic film and incubated at 4° C. overnight. The next day, the plate was washed twice with PBST, and a blocking buffer [PBS+2% (w/w) BSA] was added for blocking at room temperature for 2 h. The blocking buffer was discarded, and a chimeric antibody or negative control antibody serially diluted from 100 nM was added at 50 μL/well. After incubation at 37° C. for 2 h, the plate was washed 3 times with PBST. […] After incubation at 37° C. for 2 h, the plate was washed 5 times with PBST. A TMB substrate was added at 50 μL/well for incubation at room temperature for 5-10 min, and then a stop solution (1.0 N HCl) was added at 50 μL/well.

[4] = biological target: T1, human MSLN-FL-his protein; test: ELISA, coated antigen; antibody 100 nM
Method: as §1

[5] = biological target: T1, human MSLN-FL-his protein; test: ELISA, coated antigen; antibody 1 nM
Method: as §1

[6] = biological target: T1, human MSLN-FL-his protein; test: ELISA, coated antigen; no antibody (blank, column 'none')
Method: as §1

[7] = biological target: T1, human MSLN-FL-his protein; test: ELISA, coated antigen; antibody 0.001 nM
Method: as §1

[8] = biological target: T2, human MSLN-R1-his protein; test: ELISA, coated antigen; antibody 10 nM
Method: as §1

[9] = biological target: T2, human MSLN-R1-his protein; test: ELISA, coated antigen; antibody 1 nM
Method: as §1

[10] = biological target: T1, human MSLN-FL-his protein; test: ELISA, coated antigen; antibody 0.01 nM
Method: as §1

[11] = biological target: T2, human MSLN-R1-his protein; test: ELISA, coated antigen; antibody 0.1 nM
Method: as §1

[12] = biological target: T1, human MSLN-FL-his protein; test: ELISA, coated antigen; antibody 0.0001 nM
Method: as §1

[13] = biological target: T1, human MSLN-FL-his protein; test: ELISA, coated antigen; antibody 10 nM
Method: as §1

[14] = biological target: T2, human MSLN-R1-his protein; test: ELISA, coated antigen; no antibody (blank, column 'none')
Method: as §1

[15] = biological target: T2, human MSLN-R1-his protein; test: ELISA, coated antigen; antibody 0.001 nM
Method: as §1

[16] = biological target: T2, human MSLN-R1-his protein; test: ELISA, coated antigen; antibody 100 nM
Method: as §1

Binder	OD450 [1]	OD450 [2]	OD450 [3]	OD450 [4]	OD450 [5]	OD450 [6]	OD450 [7]	OD450 [8]	OD450 [9]	OD450 [10]	OD450 [11]	OD450 [12]	OD450 [13]	OD450 [14]	OD450 [15]	OD450 [16]
B1	1.75	0.04	0.04	2.74	2.27	0.06	0.11	0.05	0.04	0.49	0.05	0.06	2.31	0.04	0.05	0.05
B2	0.3	0.05	0.04	2.59	1.43	0.06	0.06	0.07	0.05	0.08	0.05	0.06	2.05	0.05	0.04	0.27
B3	1.67	0.04	0.04	2.57	2.3	0.06	0.1	0.04	0.03	0.43	0.03	0.06	2.44	0.05	0.05	0.05
B4	1.62	0.04	0.04	2.48	2.22	0.06	0.09	0.04	0.04	0.41	0.04	0.06	2.27	0.04	0.04	0.06
B5	1.83	0.04	0.03	2.74	2.3	0.05	0.11	0.06	0.05	0.55	0.04	0.05	2.44	0.05	0.05	0.12
B6	0.82	0.04	0.05	2.51	2.03	0.05	0.06	0.04	0.03	0.15	0.03	0.05	2.42	0.05	0.04	0.07
B7	1.76	0.03	0.05	2.65	2.31	0.05	0.1	0.04	0.03	0.47	0.03	0.06	2.38	0.05	0.04	0.06
B8	1.79	0.04	0.05	2.61	2.35	0.05	0.11	0.04	0.04	0.48	0.04	0.06	2.59	0.05	0.04	0.06
